The target in data set [1] is microtubules assembled from porcine tubulin (porcine) (UniProt P02550). Kind of data set: co-sedimentation.
The data set “SEC-MALS” deals with the molecule itself. Briefly: SEC-MALS.

B1: SPR2(1 to 500)-GFP (domain or fragment)
chain: MSTPTTSGSAAKPTRPARSSSLATRSCSNSGSLTSFQAMVELKQKILTSISKLADRDTYQIAVEDLEKTIQSLTPETLPMFLNCLYDSCSDPKPAVKKECLHLLSYVCSLHCDSTAAHLTKIIAQIVKRLKDSDSGVRDACRDTIGALSGIYLKGKEEGTNTGSASLAVGLFVKPLFEAMGEQNKVVQSGASMCMARMVESAASPPVTSFQKLCPRICKLLSNSSFLAKASLLPVVSSLSQVGAIAPQSLESLLESIHDCLGSTDWVTRKAAAETLTALASHSSGLIKEKTDSTITVLETCRFDKIKPVRESVTEALQLWKKISGKYVDGASDDSKLSASEQLGSEKNGEKRSNLADLMKKEASDGSTLSPDSASKGKGCFPEKAVGLLKKKAPVLSDKDFNPEFFQRLERRQSVEVVVPRRCKNNDEEESGLDDLNAMGSSNRLKNTQADDKQVKGRFDGNGSQARTSGDDKAGVVNGKETPGHHAPVSNTDNQSEGSF
B1 gave a dissociation constant (Kd) in data set [1] of 17.4 µM.

B2: full-length SPR2 (SEC-MALS sample) (natural protein, Arabidopsis thaliana, UniProt Q9T041 1-864, looked up)
chain: MSTPTTSGSAAKPTRPARSSSLATRSCSNSGSLTSFQAMVELKQKILTSISKLADRDTYQIAVEDLEKTIQSLTPETLPMFLNCLYDSCSDPKPAVKKECLHLLSYVCSLHCDSTAAHLTKIIAQIVKRLKDSDSGVRDACRDTIGALSGIYLKGKEEGTNTGSASLAVGLFVKPLFEAMGEQNKVVQSGASMCMARMVESAASPPVTSFQKLCPRICKLLSNSSFLAKASLLPVVSSLSQVGAIAPQSLESLLESIHDCLGSTDWVTRKAAAETLTALASHSSGLIKEKTDSTITVLETCRFDKIKPVRESVTEALQLWKKISGKYVDGASDDSKLSASEQLGSEKNGEKRSNLADLMKKEASDGSTLSPDSASKGKGCFPEKAVGLLKKKAPVLSDKDFNPEFFQRLERRQSVEVVVPRRCKNNDEEESGLDDLNAMGSSNRLKNTQADDKQVKGRFDGNGSQARTSGDDKAGVVNGKETPGHHAPVSNTDNQSEGSFTSNRGNWSAIQRQLLQLERQQTNLMNMLQEFIGGSHDSMVTLEGRVRGLERIVEDMARDLSISSGRRANLTAGFGKYNSFANYPTGKYNGRAPGERGSQTDGAMRGRMWNSDMADDWFIPPHAASRNGQAGPRRSPRSEQYENEHMGNGRRGWDNKASGTIRFGEGPSARSVWQASKDEATLEAIRVAGEDGAVPRPTRVAVAPEAEAMGDDDNEGQERDPIWVSWSNAMHSLRVGDIDAAYAEVLCAGDQHLVIKLMDKTGPSLDQMSNEIANEALNFISQFLLDHSLYDICLSWSQQLLELVLQDGADTFGVPMELKTEILYNLQDACSTMDPPEDWEGPAPEQLVVQLASVWEIDLQQFDK
With B2, in “SEC-MALS”, the “stoichiometry N” value is 4.

Values taken from PMC10980349 (The Plant Cell, 2023).
